Results on one molecule are retold here after patent US20160250313A1 (GlaxoSmithKline, published 2016).

The target of this test is T1, Vitronectin from human plasma, SIGMA-ALDRICH (human, UniProt P04004 20-478).
T1 construct: mature
The test is described as follows: ELISA, fusion protein coated at 10 ug/ml, vitronectin from 10 ug/ml in two-fold dilutions, detected with peroxidase sheep anti-human vitronectin. (In general: An ELISA detects its analyte on a solid surface through an enzyme-linked reagent.)

T1 sequence (P04004 20-478): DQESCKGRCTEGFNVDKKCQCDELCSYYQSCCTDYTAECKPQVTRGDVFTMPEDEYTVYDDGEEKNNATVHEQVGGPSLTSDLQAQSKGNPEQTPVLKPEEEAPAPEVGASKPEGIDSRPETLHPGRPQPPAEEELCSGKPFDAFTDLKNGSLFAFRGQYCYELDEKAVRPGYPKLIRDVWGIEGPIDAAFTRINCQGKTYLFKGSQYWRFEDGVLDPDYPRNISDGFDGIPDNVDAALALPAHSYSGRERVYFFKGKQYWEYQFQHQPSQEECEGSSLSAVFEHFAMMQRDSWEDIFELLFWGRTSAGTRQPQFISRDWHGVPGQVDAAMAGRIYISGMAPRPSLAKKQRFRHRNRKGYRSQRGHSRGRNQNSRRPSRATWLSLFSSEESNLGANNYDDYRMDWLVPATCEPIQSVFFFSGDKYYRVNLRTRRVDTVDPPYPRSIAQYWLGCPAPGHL

B1: purified LVL317 PE-PilA fusion protein (other)
chain: QIQKAEQNDVKLAPPTDVRSGYIRLVKNVNYYIDSESIWVDNQEPQIVHFDAVVNLDKGLYVYPEPKRYARSVRQYKILNCANYHLTQVRTDFYDEFWGQGLRAAPKKQKKHTLSLTPDTTLYNAAQIICANYGEAFSVDKKGGTKKAAVSELLQASAPYKADVELCVYSTNETTNCTGGKNGIAADITTAKGYVKSVTTSNGAITVKGDGTLANMEYILQATGNAATGVTWTTTCKGTDASLFPANFCGSVTQ
notes: Coated on microtiter plates at 10 ug/ml; also called PE-PilA fusion non His-tagged protein
Consider B1, for which the binding result was “binds”.
